Patent US6623741
Where “and” joins values, the source holds several entries; their conditions need not be identical. Equal entries are not always repeated. Where two headings read alike, the source gives them in different places.

Legend:
[1] = biological target: T1772 (respiratory syncytial virus (strain A2))
[2] = biological target: T1772 (respiratory syncytial virus (strain A2)); remark: listed apart in the source
[3] = biological target: T112 (respiratory syncytial virus (strain A2))
[4] = biological target: T1772 (respiratory syncytial virus (strain A2)); remark: listed apart in the source
[5] = biological target: T1772 (respiratory syncytial virus (strain A2)); remark: listed apart in the source
[6] = biological target: T1582 (respiratory syncytial virus (strain A2)); test: sedimentation equilibrium, 35 µM peptide (self-association)
[7] = biological target: T1582 (respiratory syncytial virus (strain A2)); test: sedimentation equilibrium, 35 µM peptide, single ideal species fit (self-association); monomer 4897
[8] = biological target: T1581 (respiratory syncytial virus (strain A2)); test: sedimentation equilibrium, 35 µM peptide (self-association)
[9] = biological target: T1581 (respiratory syncytial virus (strain A2)); test: sedimentation equilibrium, 35 µM peptide, single ideal species fit (self-association); monomer 5007
[10] = biological target: T1584 (respiratory syncytial virus (strain A2)); test: sedimentation equilibrium, 35 µM peptide (self-association)
[11] = biological target: T1584 (respiratory syncytial virus (strain A2)); test: sedimentation equilibrium, 35 µM peptide, single ideal species fit (self-association); monomer 5506
[12] = biological target: T1772 (respiratory syncytial virus (strain A2)); remark: listed apart in the source
[13] = biological target: T1772 (respiratory syncytial virus (strain A2)); test: sedimentation equilibrium (self-association)
[14] = biological target: T1772 (respiratory syncytial virus (strain A2)); test: sedimentation equilibrium, value at 25 µM, single ideal species fit (self-association); monomer 5393
[15] = biological target: T1, MF-IV (MF5.1): E. coli maltose binding protein fused to RSV F protein residues 142-302 (E. coli; respiratory syncytial virus (strain A2)), P03420
T1 chain: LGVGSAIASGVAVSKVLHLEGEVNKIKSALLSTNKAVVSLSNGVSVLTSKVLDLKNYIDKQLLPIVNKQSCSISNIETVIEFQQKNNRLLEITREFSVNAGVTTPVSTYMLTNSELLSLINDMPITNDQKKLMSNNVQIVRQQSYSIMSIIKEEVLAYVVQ

[16] = biological target: T1, MF-IV (MF5.1): E. coli maltose binding …; test: competitive binding assay (B50) on the MF5.1 fusion protein; reference T112
[17] = biological target: T1623 (respiratory syncytial virus (strain A2)); test: sedimentation equilibrium, 35 µM peptide (self-association)
[18] = biological target: T1623 (respiratory syncytial virus (strain A2)); test: sedimentation equilibrium, 35 µM peptide, single ideal species fit (self-association); monomer 5750

VFPSDEFDASISQVNEKINQSLAFIRKSDELLHNV (modifications not checked) [T112] was tested. Which weight-averaged molecular weight of the mixture [1] did it give?
The weight-averaged molecular weight of the mixture was 15300 Da and 22000 Da and 17300 Da.

And the weight-averaged molecular weight of the mixture [2]?
Its weight-averaged molecular weight of the mixture is 21100 Da.

And the weight-averaged molecular weight [3]?
Its weight-averaged molecular weight is 3980 Da.

What about the helicity of the peptide mixture [4] of the same binder?
The helicity of the peptide mixture was 86%.

What about the melting temperature (Tm) of the peptide mixture [5] of the same binder?
Its melting temperature (Tm) of the peptide mixture is 87 ° C.

VLHLEGEVNKIKSALLSTNKAVVSLSNGVSVLTSKVLDLKNYIDK (modifications not checked) [T1582] was tested. Which N-mer (weight-averaged molecular weight / monomer molecular weight) [6] did it give?
The N-mer (weight-averaged molecular weight / monomer molecular weight) was 1.5.

And the weight-averaged molecular weight [7]?
Its weight-averaged molecular weight is 7520 g/mol.

With VLHLEGEVNKIKSALLSTNKAVVSLSNGVSVLTSKVLDLKNYIDKQ (modifications not checked) [T1581] as the binder, how does the N-mer (weight-averaged molecular weight / monomer molecular weight) [8] read?
Its N-mer (weight-averaged molecular weight / monomer molecular weight) is 1.8.

What about the weight-averaged molecular weight [9] of the same binder?
Its weight-averaged molecular weight is 9120 g/mol.

B1: T1584 (peptide)
peptide: AVSKVLHLEGEVNKIKSALLSTNKAVVSLSNGVSVLTSKVLDLKNYIDKQL
modifications: not checked
With B1 as the binder, how does the N-mer (weight-averaged molecular weight / monomer molecular weight) [10] read?
The N-mer (weight-averaged molecular weight / monomer molecular weight) was 2.1.

What about the weight-averaged molecular weight [11] of the same binder?
The weight-averaged molecular weight was 11700 g/mol.

For AVSKVLHLEGEVNKIKSALLSTNKAVVSLSNGVSVLTSKVLDLKNYIDKQ (modifications not checked) [T1772], which weight-averaged molecular weight [12] is on record?
The weight-averaged molecular weight was 12900 Da.

And the N-mer (weight-averaged molecular weight / monomer molecular weight) [13]?
The N-mer (weight-averaged molecular weight / monomer molecular weight) was 2.4.

What about the weight-averaged molecular weight [14] of the same binder?
Its weight-averaged molecular weight is 12900 g/mol.

With DEFDASISQVNEKINQSLAFIRKSDELL (modifications not checked) [T67] as the binder, how does the binding affinity [15] read?
Its binding affinity is 5 nM.

And the fold lower binding affinity than T112 [16]?
Its fold lower binding affinity than T112 is 5 fold.

B2: T1623 (peptide)
peptide: SGVAVSKVLHLEGEVNKIKSALLSTNKAVVSLSNGVSVLTSKVLDLKNYIDKQL
modifications: not checked
Which results are given for B2?
N-mer (weight-averaged molecular weight / monomer molecular weight) [17]: 2.2; weight-averaged molecular weight [18]: 12900 g/mol
